Measurements taken from publication PMC12089419, “Synergistic regulation of DACH1 stability by acetylation and deubiquitination promotes colorectal cancer progression” (Cell Death & Disease, 2025).

Biological target: T1, GST-USP7 (UniProt Q93009 1-1102)
T1 construct: USP7, cloned in pGEX-4T-1; also called GST-tagged USP7; source: plasmid in pGEX-4T-1
Experiment: pull-down; purified DACH1 incubated with GST or GST-USP7 conjugated with GSH-Sepharose, followed by Coomassie blue staining
Conditions: both partners purified

T1 sequence (Q93009 whole entry): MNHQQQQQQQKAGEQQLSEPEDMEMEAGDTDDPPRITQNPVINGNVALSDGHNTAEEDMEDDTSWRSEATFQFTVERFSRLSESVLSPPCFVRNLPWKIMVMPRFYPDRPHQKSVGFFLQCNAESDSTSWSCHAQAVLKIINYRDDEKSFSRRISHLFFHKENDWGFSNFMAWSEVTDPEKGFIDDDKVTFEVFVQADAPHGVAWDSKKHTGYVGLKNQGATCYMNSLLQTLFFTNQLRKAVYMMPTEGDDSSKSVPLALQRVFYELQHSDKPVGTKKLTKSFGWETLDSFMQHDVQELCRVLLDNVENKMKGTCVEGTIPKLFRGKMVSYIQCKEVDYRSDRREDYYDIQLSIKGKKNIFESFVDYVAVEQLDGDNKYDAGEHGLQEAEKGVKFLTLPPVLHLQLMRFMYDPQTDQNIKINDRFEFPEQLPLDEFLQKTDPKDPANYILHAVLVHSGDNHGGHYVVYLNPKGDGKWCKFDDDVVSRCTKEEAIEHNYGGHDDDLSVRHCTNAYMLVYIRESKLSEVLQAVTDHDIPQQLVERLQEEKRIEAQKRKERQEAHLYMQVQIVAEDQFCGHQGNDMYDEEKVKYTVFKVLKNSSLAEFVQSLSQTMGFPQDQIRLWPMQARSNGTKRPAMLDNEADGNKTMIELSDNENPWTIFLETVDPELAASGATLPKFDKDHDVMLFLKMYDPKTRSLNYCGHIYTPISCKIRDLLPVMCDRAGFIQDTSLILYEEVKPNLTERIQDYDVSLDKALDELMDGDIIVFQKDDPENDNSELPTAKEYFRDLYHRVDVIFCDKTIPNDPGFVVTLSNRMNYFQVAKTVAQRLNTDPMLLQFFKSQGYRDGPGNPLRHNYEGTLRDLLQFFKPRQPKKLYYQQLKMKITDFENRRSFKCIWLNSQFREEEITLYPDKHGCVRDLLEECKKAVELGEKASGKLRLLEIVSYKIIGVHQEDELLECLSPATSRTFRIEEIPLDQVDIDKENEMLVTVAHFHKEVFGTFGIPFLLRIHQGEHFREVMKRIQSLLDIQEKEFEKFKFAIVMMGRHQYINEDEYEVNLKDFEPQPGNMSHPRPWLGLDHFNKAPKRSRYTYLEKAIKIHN

B1: Myc-DACH1-FL (natural protein, human, UniProt Q9UI36 1-758, looked up)
chain: MAVPAALIPPTQLVPPQPPISTSASSSGTTTSTSSATSSPAPSIGPPASSGPTLFRPEPIASAAAAAATVTSTGGGGGGGGSGGGGGSSGNGGGGGGGGGGSNCNPNLAAASNGSGGGGGGISAGGGVASSTPINASTGSSSSSSSSSSSSSSSSSSSSSSSSCGPLPGKPVYSTPSPVENTPQNNECKMVDLRGAKVASFTVEGCELICLPQAFDLFLKHLVGGLHTVYTKLKRLEITPVVCNVEQVRILRGLGAIQPGVNRCKLISRKDFETLYNDCTNASSRPGRPPKRTQSVTSPENSHIMPHSVPGLMSPGIIPPTGLTAAAAAAAAATNAAIAEAMKVKKIKLEAMSNYHASNNQHGADSENGDMNSSVGSSDGSWDKETLPSSPSQGPQASITHPRMPGARSLPLSHPLNHLQQSHLLPNGLELPFMMMPHPLIPVSLPPASVTMAMSQMNHLSTIANMAAAAQVQSPPSRVETSVIKERVPDSPSPAPSLEEGRRPGSHPSSHRSSSVSSSPARTESSSDRIPVHQNGLSMNQMLMGLSPNVLPGPKEGDLAGHDMGHESKRMHIEKDETPLSTPTARDSLDKLSLTGHGQPLPPGFPSPFLFPDGLSSIETLLTNIQGLLKVAIDNARAQEKQVQLEKTELKMDFLRERELRETLEKQLAMEQKNRAIVQKRLKKEKKAKRKLQEALEFETKRREQAEQTLKQAASTDSLRVLNDSLTPEIEADRSGGRTDAERTIQDGRLYLKTTVMY
notes: DACH1, human, full length (FL), cloned in pcDNA3.1 or a lentiviral plasmid; the text calls it Myc-tagged DACH1; also called Myc-tagged DACH1; Myc-tagged FL DACH1; source: HEK293T or SW480, transfected, in lysate; HCT8, stably expressed, whole cell extracts
B1: binds.
